B1: CCCH-type zinc finger protein oma-1 (Caenorhabditis elegans), G5EC86 (parent)
chain: MNVNGENNEKIDEHHLESSLAGVPTLPVSPLDHAKDLSQTNPNAQIGDLVTQTANLIAIKKQLLEDIAFNQHIQSMQVRAIQSFPQNNQVAPPFQQFDPRRRGLARMQKPESYKTVICQAWLESKTCSFADNCRFAHGEEELRPTFVEPLQNNKYKTKLCDKYTTTGLCPYGKRCLFIHPDHGPNAYIRADKLLEVSQRHALADIRDQMEQHIMTNGRIAAPPLSAIQHPLEMFARPSTPDEPAAKLPLGPTPVSTRGPRYELPTKELHDAEGAMTYPPSRWPLDPSMFALDAWNMAHRPASPLDSMVLGSAPNAGSFGMLGKQNTPGGVSGYSSAGSTPSQDLSSSSLNAASAAAAAAYFANSAVAQSLLMKSVATDPMMSCNGPFSPMPGFDQLAENMTKHLNLW
partner: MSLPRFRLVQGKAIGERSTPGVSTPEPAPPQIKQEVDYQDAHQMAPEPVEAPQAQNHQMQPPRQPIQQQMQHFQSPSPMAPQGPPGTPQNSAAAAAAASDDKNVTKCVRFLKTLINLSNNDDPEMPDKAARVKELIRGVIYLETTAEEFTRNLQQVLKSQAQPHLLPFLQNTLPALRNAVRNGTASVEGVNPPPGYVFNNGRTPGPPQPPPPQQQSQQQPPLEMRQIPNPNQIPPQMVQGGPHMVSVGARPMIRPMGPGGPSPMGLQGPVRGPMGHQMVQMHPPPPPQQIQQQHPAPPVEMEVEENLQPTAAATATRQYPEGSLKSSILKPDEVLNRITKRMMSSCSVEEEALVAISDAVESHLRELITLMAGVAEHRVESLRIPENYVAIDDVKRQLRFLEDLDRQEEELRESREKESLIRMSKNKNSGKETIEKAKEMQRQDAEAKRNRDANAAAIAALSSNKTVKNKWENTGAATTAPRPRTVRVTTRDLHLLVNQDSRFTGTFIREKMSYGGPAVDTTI

Variants of: B1
Settings: with taf4_caeel taf-4, O61707

| effect of a mutation on the interaction | Variant |
| --- | --- |
| decreasing interaction | MNVNGENNEKIDEHHLESSLAGVPTLPVSPLDHAKDLSQTNPNAQIGDLVTQTANLIAIKKQLLEDIAFNQHIQSMQVRAIQSFPQNNQVAPPFQQFDPRRRGLARMQKPESYKTVICQAWLESKTCSFADNCRFAHGEEELRPTFVEPLQNNKYKTKLCDKYTTTGLCPYGKRCLFIHPDHGPNAYIRADKLLEVSQRHALADIRDQMEQHIMTNGRIAAPPLSAIQHPLEMFARPSAPDEPAAKLPLGPTPVSTRGPRYELPTKELHDAEGAMTYPPSRWPLDPSMFALDAWNMAHRPASPLDSMVLGSAPNAGSFGMLGKQNTPGGVSGYSSAGSTPSQDLSSSSLNAASAAAAAAYFANSAVAQSLLMKSVATDPMMSCNGPFSPMPGFDQLAENMTKHLNLW [T239A] |

From IntAct's records for PubMed 18854162
